# Assay results reported in US20260242419A1, “A CYCLIC PEPTIDE FOR TRAPPING INTERLEUKIN-1 BETA” (Merck Sharp & Dohme LLC, priority 2023, published 2026).
# Starred links: 1 amine or outer side, 2 acyl side, 3 side chain; linkers in the order of their positions; H or OH if unused. Non-standard residues stand in square brackets, D forms with d. Bip4CONMe2 = (2S)-2-amino-3-[4-[4-(dimethylcarbamoyl)phenyl]phenyl]propanoic acid, CN(C)C(=O)c1ccc(-c2ccc(C[C@H](N[*:1])C(=O)[*:2])cc2)cc1; TyrEtNAc = (2S)-3-[4-(2-acetamidoethoxy)phenyl]-2-amino-propanoic acid, CC(=O)NCCOc1ccc(C[C@H](N[*:1])C(=O)[*:2])cc1; Phe3Cl4COOH = (S)-4-(2-amino-2-carboxyethyl)-2-chlorobenzoic acid, O=C([C@H](Cc1ccc(C(=O)[*:3])c(Cl)c1)N[*:1])[*:2]; 4PyrimAla = (2S)-2-amino-3-pyrimidin-4-yl-propanoic acid, O=C([C@H](Cc1ccncn1)N[*:1])[*:2]; Phe(4-(5-CO2H-2-pyrimidyl)) = N[C@@H](Cc1ccc(-c2ncc(C(=O)O)cn2)cc1)C(=O)O; Phe(4-(4-Ac-piperazinyl)) = CC(=O)N1CCN(c2ccc(C[C@H](N)C(=O)O)cc2)CC1; Trp(4-Cl)(βS-Me) = C[C@@H](c1c[nH]c2cccc(Cl)c12)[C@H](N)C(=O)O; dPro(4R-(4-pyridylmethyl)) = O=C(O)[C@H]1C[C@@H](Cc2ccncc2)CN1; Trp(βS-Me,4-F) = C[C@@H](c1c[nH]c2cccc(F)c12)[C@H](N)C(=O)O; Bip(4'-CONH2) = NC(=O)c1ccc(-c2ccc(C[C@H](N)C(=O)O)cc2)cc1; Bip(4'-COOH) = N[C@@H](Cc1ccc(-c2ccc(C(=O)O)cc2)cc1)C(=O)O; Ala(1-bicyclo(1.1.1)pentyl) = N[C@@H](CC12CC(C1)C2)C(=O)O; dPro(4R-Bzl(4-F)) = O=C(O)[C@H]1C[C@@H](Cc2ccc(F)cc2)CN1; dPro(3S-(4-F-Bn)) = O=C(O)[C@@H]1NCC[C@@H]1Cc1ccc(F)cc1; Phe(2-Cl,4-COOH) = N[C@@H](Cc1ccc(C(=O)O)cc1Cl)C(=O)O; Bip(4'-Cl) = N[C@@H](Cc1ccc(-c2ccc(Cl)cc2)cc1)C(=O)O; 1Nal(3S-Me) = C[C@@H](c1cccc2ccccc12)[C@H](N)C(=O)O; Ala(pyrimidin-5-yl) = N[C@@H](Cc1cncnc1)C(=O)O; Phe(4-COOH) = N[C@@H](Cc1ccc(C(=O)O)cc1)C(=O)O; Bip = N[C@@H](Cc1ccc(-c2ccccc2)cc1)C(=O)O; Pro(cis-4-F) = O=C(O)[C@@H]1C[C@H](F)CN1; Ala(4-THP) = N[C@@H](CC1CCOCC1)C(=O)O; d(αMeD) = C[C@@](N)(CC(=O)O)C(=O)O; 4Pal = N[C@@H](Cc1ccncc1)C(=O)O; aThr = C[C@H](O)[C@H](N)C(=O)O; d(αMeS) = C[C@@](N)(CO)C(=O)O; Cba = N[C@@H](CC1CCC1)C(=O)O; Dab = NCC[C@H](N)C(=O)O; Aib = CC(C)(N)C(=O)O
# Legend:
# [1] = target: Recombinant human IL-1β (BioLegend 579404) (human, UniProt P01584 117-269); assay: cell-based or functional assay
# [2] = target: Recombinant human IL-1β (BioLegend 579404) (human, UniProt P01584 117-269); assay: cell-based or functional assay; remark: listed apart in the source
Binder,MRC5 IC50 [1] [nM],MRC5 IC50 [2] [nM]
"cyclo([Phe(4-(5-CO2H-2-pyrimidyl))][4Pal][Phe3Cl4COOH]G[Pro(cis-4-F)][Trp(βS-Me,4-F)][Aib]SW[d(αMeD)][Ala(4-THP)]Q[Dab]G[dPro(4R-(4-pyridylmethyl))]) (ring closure inferred) [SEQ ID NO 361]",0.022,–
"cyclo([Bip(4'-COOH)][4Pal][Phe(4-COOH)]G[Pro(cis-4-F)][Trp(βS-Me,4-F)][Aib][aThr]W[d(αMeD)][Ala(4-THP)]Q[Dab]G[dPro(4R-(4-pyridylmethyl))]) (ring closure inferred) [SEQ ID NO 353]",0.017,–
"cyclo([Bip(4'-COOH)][4Pal][Phe(2-Cl,4-COOH)]G[Pro(cis-4-F)][1Nal(3S-Me)][Aib]SW[d(αMeD)][aThr]Q[Dab]G[dPro(4R-(4-pyridylmethyl))]) (ring closure inferred) [SEQ ID NO 354]",0.014,–
"cyclo([Bip(4'-COOH)][4Pal][Phe(2-Cl,4-COOH)]G[Pro(cis-4-F)][Trp(βS-Me,4-F)][Aib]SW[d(αMeD)][aThr]Q[Dab]G[dPro(4R-(4-pyridylmethyl))]) (ring closure inferred) [SEQ ID NO 356]",0.011,–
"cyclo([Bip(4'-COOH)][4Pal][Phe(4-COOH)]G[Pro(cis-4-F)][Trp(βS-Me,4-F)][Aib]SW[d(αMeS)][Ala(4-THP)]Q[Dab]G[dPro(4R-(4-pyridylmethyl))]) (SMILES C[C@@H](c1c[nH]c2cccc(F)c12)[C@@H]1NC(=O)[C@@H]2C[C@H](F)CN2C(=O)CNC(=O)[C@H](Cc2ccc(C(=O)O)cc2)NC(=O)[C@H](Cc2ccncc2)NC(=O)[C@H](Cc2ccc(-c3ccc(C(=O)O)cc3)cc2)NC(=O)[C@H]2C[C@@H](Cc3ccncc3)CN2C(=O)CNC(=O)[C@H](CCN)NC(=O)[C@H](CCC(N)=O)NC(=O)[C@H](CC2CCOCC2)NC(=O)[C@@](C)(CO)NC(=O)[C@H](Cc2c[nH]c3ccccc23)NC(=O)[C@H](CO)NC(=O)C(C)(C)NC1=O) [SEQ ID NO 364]",–,0.015
"cyclo([Bip(4'-CONH2)][Ala(1-bicyclo(1.1.1)pentyl)][Phe(4-COOH)]G[Pro(cis-4-F)][Trp(βS-Me,4-F)][Aib]SW[d(αMeD)][Ala(pyrimidin-5-yl)]Q[Dab]G[dPro(4R-(4-pyridylmethyl))]) (ring closure inferred) [SEQ ID NO 342]",0.022,–
cyclo([Bip(4'-COOH)][4Pal][Phe(4-COOH)]G[Pro(cis-4-F)][Trp(4-Cl)(βS-Me)][Aib]SW[d(αMeD)][aThr]Q[Dab]G[dPro(4R-(4-pyridylmethyl))]) (ring closure inferred) [SEQ ID NO 358],0.013,–
"cyclo([Bip(4'-COOH)][Ala(1-bicyclo(1.1.1)pentyl)][Phe(4-COOH)]G[Pro(cis-4-F)][Trp(βS-Me,4-F)][Aib]SW[d(αMeD)]LQ[Dab]G[dPro(4R-(4-pyridylmethyl))]) (ring closure inferred) [SEQ ID NO 349]",0.017,–
"cyclo([Phe(4-(5-CO2H-2-pyrimidyl))][4Pal][Phe(2-Cl,4-COOH)]G[Pro(cis-4-F)][1Nal(3S-Me)][Aib]SW[d(αMeD)][Ala(4-THP)]Q[Dab]G[dPro(4R-(4-pyridylmethyl))]) (ring closure inferred) [SEQ ID NO 360]",0.019,–
"cyclo([Phe(4-(4-Ac-piperazinyl))][4Pal][Phe(4-COOH)]G[Pro(cis-4-F)][Trp(βS-Me,4-F)][Aib]SW[d(αMeS)][Ala(pyrimidin-5-yl)]Q[Dab]G[dPro(4R-(4-pyridylmethyl))]) (ring closure inferred) [SEQ ID NO 350]",0.02,–
"cyclo([Bip(4'-COOH)][4Pal][Phe(4-COOH)]G[Pro(cis-4-F)][Trp(βS-Me,4-F)][Aib]SW[d(αMeS)]LQ[Dab]G[dPro(4R-(4-pyridylmethyl))]) (ring closure inferred) [SEQ ID NO 347]",0.025,–
cyclo([Bip(4'-COOH)][4Pal][Phe(4-COOH)]G[Pro(cis-4-F)][1Nal(3S-Me)][Aib]SW[d(αMeD)][aThr]Q[Dab]G[dPro(4R-(4-pyridylmethyl))]) (ring closure inferred) [SEQ ID NO 357],0.017,–
"cyclo([Phe(4-(5-CO2H-2-pyrimidyl))][4Pal][Phe(4-COOH)]G[Pro(cis-4-F)][Trp(βS-Me,4-F)][Aib]SW[d(αMeD)][Ala(4-THP)]Q[Dab]G[dPro(4R-(4-pyridylmethyl))]) (ring closure inferred) [SEQ ID NO 351]",0.016,–
"cyclo([Bip][Ala(1-bicyclo(1.1.1)pentyl)][Phe(4-COOH)]G[Pro(cis-4-F)][Trp(βS-Me,4-F)][Aib]SW[d(αMeD)][Ala(pyrimidin-5-yl)]Q[Dab]G[dPro(4R-(4-pyridylmethyl))]) (ring closure inferred) [SEQ ID NO 343]",0.026,–
"cyclo([Bip(4'-COOH)][4Pal][Phe(2-Cl,4-COOH)]G[Pro(cis-4-F)][Trp(4-Cl)(βS-Me)][Aib]SW[d(αMeD)][aThr]Q[Dab]G[dPro(4R-(4-pyridylmethyl))]) (ring closure inferred) [SEQ ID NO 355]",0.013,–
"cyclo([Bip(4'-COOH)][4Pal][Phe(4-COOH)]G[Pro(cis-4-F)][Trp(βS-Me,4-F)][Aib][aThr]W[d(αMeS)][aThr]Q[Dab]G[dPro(4R-(4-pyridylmethyl))]) (ring closure inferred) [SEQ ID NO 352]",0.023,–
"cyclo([Bip(4'-COOH)][4Pal][Phe(4-COOH)]G[Pro(cis-4-F)][Trp(βS-Me,4-F)][Aib]EW[Aib][4PyrimAla]Q[Dab]G[dPro(4R-Bzl(4-F))]) (ring closure inferred) [SEQ ID NO 345]",0.012,–
"cyclo([Bip(4'-COOH)][Ala(1-bicyclo(1.1.1)pentyl)][Phe(4-COOH)]G[Pro(cis-4-F)][Trp(βS-Me,4-F)][Aib]SW[d(αMeD)][Cba]Q[Dab]G[dPro(4R-(4-pyridylmethyl))]) (ring closure inferred) [SEQ ID NO 348]",0.018,–
"cyclo([Bip(4'-COOH)][4Pal][Phe(4-COOH)]G[Pro(cis-4-F)][Trp(βS-Me,4-F)][Aib]EW[Aib][Ala(pyrimidin-5-yl)]Q[Dab]G[dPro(3S-(4-F-Bn))]) (ring closure inferred) [SEQ ID NO 346]",0.01,–
"cyclo([Bip(4'-Cl)][4Pal][Phe(4-COOH)]G[Pro(cis-4-F)][Trp(βS-Me,4-F)][Aib]SW[d(αMeD)][Ala(pyrimidin-5-yl)]Q[Dab]G[dPro(4R-(4-pyridylmethyl))]) (ring closure inferred) [SEQ ID NO 344]",0.022,–
"cyclo([Bip4CONMe2][Ala(1-bicyclo(1.1.1)pentyl)][Phe(4-COOH)]G[Pro(cis-4-F)][Trp(βS-Me,4-F)][Aib]SW[d(αMeD)][Ala(pyrimidin-5-yl)]Q[Dab]G[dPro(4R-(4-pyridylmethyl))]) (ring closure inferred) [SEQ ID NO 341]",0.024,–
cyclo([TyrEtNAc][4Pal][Phe(4-COOH)]G[Pro(cis-4-F)][Trp(4-Cl)(βS-Me)][Aib]SW[d(αMeD)][Ala(4-THP)]Q[Dab]G[dPro(4R-(4-pyridylmethyl))]) (SMILES CC(=O)NCCOc1ccc(C[C@@H]2NC(=O)[C@H]3C[C@@H](Cc4ccncc4)CN3C(=O)CNC(=O)[C@H](CCN)NC(=O)[C@H](CCC(N)=O)NC(=O)[C@H](CC3CCOCC3)NC(=O)[C@@](C)(CC(=O)O)NC(=O)[C@H](Cc3c[nH]c4ccccc34)NC(=O)[C@H](CO)NC(=O)C(C)(C)NC(=O)[C@H]([C@@H](C)c3c[nH]c4cccc(Cl)c34)NC(=O)[C@@H]3C[C@H](F)CN3C(=O)CNC(=O)[C@H](Cc3ccc(C(=O)O)cc3)NC(=O)[C@H](Cc3ccncc3)NC2=O)cc1) [SEQ ID NO 362],–,0.023
"cyclo([TyrEtNAc][4Pal][Phe(2-Cl,4-COOH)]G[Pro(cis-4-F)][1Nal(3S-Me)][Aib]SW[d(αMeD)][Ala(4-THP)]Q[Dab]G[dPro(4R-(4-pyridylmethyl))]) (SMILES CC(=O)NCCOc1ccc(C[C@@H]2NC(=O)[C@H]3C[C@@H](Cc4ccncc4)CN3C(=O)CNC(=O)[C@H](CCN)NC(=O)[C@H](CCC(N)=O)NC(=O)[C@H](CC3CCOCC3)NC(=O)[C@@](C)(CC(=O)O)NC(=O)[C@H](Cc3c[nH]c4ccccc34)NC(=O)[C@H](CO)NC(=O)C(C)(C)NC(=O)[C@H]([C@@H](C)c3cccc4ccccc34)NC(=O)[C@@H]3C[C@H](F)CN3C(=O)CNC(=O)[C@H](Cc3ccc(C(=O)O)cc3Cl)NC(=O)[C@H](Cc3ccncc3)NC2=O)cc1) [SEQ ID NO 363]",–,0.021
"cyclo([Bip(4'-COOH)][4Pal][Phe(4-COOH)]G[Pro(cis-4-F)][Trp(βS-Me,4-F)][Aib]SW[d(αMeD)][aThr]Q[Dab]G[dPro(4R-(4-pyridylmethyl))]) (ring closure inferred) [SEQ ID NO 359]",0.011,–
